The values below come from paper PMC9688306, “Construction of Aptamer-Based Nanobiosensor for Breast Cancer Biomarkers Detection Utilizing g-C3N4/Magnetic Nano-Structure”.

The target in the series is CA 15-3 (Cancer Antigen 15-3) (UniProt P15941 24-1097). As to the kind of experiment: electrochemical aptasensor (CV, SWV, EIS); label-free, ferri/ferrocyanide redox probe; aptamer on g-C3N4/Fe3O4; linear 10-90 U/mL; PBS pH 7.4 (0.1 M), room temperature, 35 min incubation; 0.2 mM ferricyanide probe (label-free) or methylene blue in PBS (label-based).
Sequence of CA 15-3 (Cancer Antigen 15-3) (P15941 24-1097): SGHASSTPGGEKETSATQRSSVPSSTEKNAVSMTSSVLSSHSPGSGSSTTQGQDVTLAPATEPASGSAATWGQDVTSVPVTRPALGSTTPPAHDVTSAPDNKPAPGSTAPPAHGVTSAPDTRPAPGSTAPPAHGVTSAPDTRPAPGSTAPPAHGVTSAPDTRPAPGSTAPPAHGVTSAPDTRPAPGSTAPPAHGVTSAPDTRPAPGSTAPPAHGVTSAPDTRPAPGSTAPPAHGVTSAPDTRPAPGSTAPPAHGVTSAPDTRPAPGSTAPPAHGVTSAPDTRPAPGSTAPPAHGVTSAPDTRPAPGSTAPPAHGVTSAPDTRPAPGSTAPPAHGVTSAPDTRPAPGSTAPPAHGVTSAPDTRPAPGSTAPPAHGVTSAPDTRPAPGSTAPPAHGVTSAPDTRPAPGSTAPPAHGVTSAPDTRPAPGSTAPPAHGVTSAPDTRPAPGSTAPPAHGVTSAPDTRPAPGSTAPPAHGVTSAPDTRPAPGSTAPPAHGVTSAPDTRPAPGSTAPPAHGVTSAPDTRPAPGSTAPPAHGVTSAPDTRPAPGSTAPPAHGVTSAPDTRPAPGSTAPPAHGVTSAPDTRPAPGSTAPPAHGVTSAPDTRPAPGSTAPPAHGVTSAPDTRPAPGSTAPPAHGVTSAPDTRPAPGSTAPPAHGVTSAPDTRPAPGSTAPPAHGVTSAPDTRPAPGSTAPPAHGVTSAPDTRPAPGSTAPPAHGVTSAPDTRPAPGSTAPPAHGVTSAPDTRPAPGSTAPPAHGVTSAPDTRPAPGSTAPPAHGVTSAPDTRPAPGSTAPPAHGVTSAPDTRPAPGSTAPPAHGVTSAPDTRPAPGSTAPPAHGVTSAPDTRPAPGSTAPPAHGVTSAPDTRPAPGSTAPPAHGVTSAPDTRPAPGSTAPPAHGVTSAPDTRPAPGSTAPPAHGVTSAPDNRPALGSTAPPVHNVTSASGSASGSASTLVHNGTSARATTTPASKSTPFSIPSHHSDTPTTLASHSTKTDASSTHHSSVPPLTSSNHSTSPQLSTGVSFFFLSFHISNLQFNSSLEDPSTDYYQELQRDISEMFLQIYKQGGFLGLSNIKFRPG

Consider GAAGTGAATATGACAGATCACAACT (ssDNA) [CA 15-3 aptamer], for which the binding result is “binds”.
